Assay results as given in the supplement of paper PMC9112550, “Optimization of the antimicrobial peptide Bac7 by deep mutational scanning” (BMC Biology, 2022).

Tested on: Escherichia coli TOP10
Experiment: shrunken log2 fold change of peptide-encoding DNA abundance (4.5 h post-induction vs induction); higher = less antimicrobial activity (less host growth inhibition)
Settings: time post-induction: 4.5 h; library: site-saturation at positions 5, 18, 19, 20
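Also: peptides expressed intracellularly from a pBAD plasmid library in pooled LB shake-flask culture, induced with 0.3% L-arabinose, DNA abundance read by NGS, three biological replicates, DESeq2 with apeglm shrinkage.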

Sequence | shrunken log2 fold change
RRIRPRPPRLPRPRPRPFIAPRP | -0.342
RRIRIRPPRLPRPRPRPWRDPRP | -0.0858
RRIRDRPPRLPRPRPRPPCRPRP | -0.0227
RRIRMRPPRLPRPRPRPMKMPRP | 0.803
RRIRGRPPRLPRPRPRPTQGPRP | 1.14
RRIRKRPPRLPRPRPRPNRIPRP | 0.0866
RRIRDRPPRLPRPRPRPPDGPRP | 0.577
RRIRTRPPRLPRPRPRPTYIPRP | -0.603
RRIRQRPPRLPRPRPRPQHAPRP | -0.476
RRIRMRPPRLPRPRPRPHMFPRP | -0.222
RRIRCRPPRLPRPRPRPHKMPRP | -0.593
RRIRLRPPRLPRPRPRPVNFPRP | -0.13
RRIRDRPPRLPRPRPRPKWEPRP | 0.104
RRIRLRPPRLPRPRPRPNQAPRP | -0.0446
RRIRGRPPRLPRPRPRPWTIPRP | 0.00608
RRIRRRPPRLPRPRPRPVEVPRP | 0.057
RRIRIRPPRLPRPRPRPFFHPRP | -0.575
RRIRCRPPRLPRPRPRPVASPRP | 0.149
RRIRDRPPRLPRPRPRPEHYPRP | -0.0548
RRIRLRPPRLPRPRPRPNAPPRP | 0.0456
RRIRSRPPRLPRPRPRPLSLPRP | 0.0119
RRIRFRPPRLPRPRPRPKYDPRP | -0.606
RRIRFRPPRLPRPRPRPARNPRP | 0.0979
RRIRDRPPRLPRPRPRPTAIPRP | 0.394
RRIRMRPPRLPRPRPRPIGNPRP | 0.13

Sequence | shrunken log2 fold change
RRIRARPPRLPRPRPRPFRPPRP | 0.153
RRIRGRPPRLPRPRPRPPGDPRP | 1.18
RRIRCRPPRLPRPRPRPPIDPRP | -0.071
RRIRMRPPRLPRPRPRPSPMPRP | 0.369
RRIRFRPPRLPRPRPRPTHMPRP | 0.0264
RRIRLRPPRLPRPRPRPCPDPRP | -0.136
RRIRYRPPRLPRPRPRPRPLPRP | -0.3
RRIRPRPPRLPRPRPRPHNAPRP | -0.284
RRIRRRPPRLPRPRPRPTECPRP | 0.0801
RRIRPRPPRLPRPRPRPMEPPRP | -0.153
RRIRHRPPRLPRPRPRPSAYPRP | -0.562
RRIRARPPRLPRPRPRPWILPRP | 0.223
RRIRIRPPRLPRPRPRPTVQPRP | -0.146
RRIRKRPPRLPRPRPRPSVLPRP | 0.0575
RRIRWRPPRLPRPRPRPMSVPRP | 0.0691
RRIRMRPPRLPRPRPRPTKSPRP | 0.459
RRIRGRPPRLPRPRPRPMMNPRP | 0.159
RRIRNRPPRLPRPRPRPVISPRP | 0.156
RRIRNRPPRLPRPRPRPPVGPRP | 0.444
RRIRMRPPRLPRPRPRPKGCPRP | -0.0257
RRIRERPPRLPRPRPRPSTAPRP | -0.151
RRIRCRPPRLPRPRPRPIVEPRP | -0.151
RRIRLRPPRLPRPRPRPQGRPRP | -0.136
RRIRCRPPRLPRPRPRPQHIPRP | -0.868
RRIRARPPRLPRPRPRPNRYPRP | -0.191

Sequence | shrunken log2 fold change
RRIRNRPPRLPRPRPRPMPHPRP | -0.626
RRIRRRPPRLPRPRPRPSINPRP | -0.13
RRIRIRPPRLPRPRPRPQIYPRP | -1.08
RRIRQRPPRLPRPRPRPHSYPRP | 0.0443
RRIRQRPPRLPRPRPRPFLDPRP | -0.372
RRIRSRPPRLPRPRPRPHTSPRP | -0.445
RRIRMRPPRLPRPRPRPHQSPRP | -0.318
RRIRYRPPRLPRPRPRPVDYPRP | -0.213
RRIRWRPPRLPRPRPRPHHAPRP | -0.0735
RRIRRRPPRLPRPRPRPAPSPRP | 0.809
RRIRKRPPRLPRPRPRPMPVPRP | -0.00341
RRIRHRPPRLPRPRPRPYYAPRP | -0.417
RRIRVRPPRLPRPRPRPANAPRP | -0.0677
RRIRRRPPRLPRPRPRPIYDPRP | -0.0515
RRIRKRPPRLPRPRPRPHGDPRP | 0.0106
RRIRPRPPRLPRPRPRPQFTPRP | -0.285
RRIRMRPPRLPRPRPRPEKCPRP | -0.0105
RRIRLRPPRLPRPRPRPILIPRP | 0.198
RRIRCRPPRLPRPRPRPTPQPRP | 0.794
RRIRQRPPRLPRPRPRPGIVPRP | 0.0144
RRIRNRPPRLPRPRPRPCPMPRP | 0.151
RRIRGRPPRLPRPRPRPTKQPRP | 0.169
RRIRKRPPRLPRPRPRPYNQPRP | -0.312
RRIRVRPPRLPRPRPRPGVGPRP | 0.275
RRIRFRPPRLPRPRPRPESKPRP | 0.183
